Read-outs that look alike come from different tables or passages of the source.
How the values were obtained:
B7.1/Ig fusion protein [1] = molecular target: T1, B7.1/Ig fusion protein (human, UniProt P33681 35-242, limits assumed); experiment: Scatchard analysis, binding to B7-Ig coated plates
T1 construct: Secreted by CHO cells; also called B7-Ig; 125I-B7.1Ig; not shown: human immunoglobulin CH2 and CH3
T1 sequence (looked up): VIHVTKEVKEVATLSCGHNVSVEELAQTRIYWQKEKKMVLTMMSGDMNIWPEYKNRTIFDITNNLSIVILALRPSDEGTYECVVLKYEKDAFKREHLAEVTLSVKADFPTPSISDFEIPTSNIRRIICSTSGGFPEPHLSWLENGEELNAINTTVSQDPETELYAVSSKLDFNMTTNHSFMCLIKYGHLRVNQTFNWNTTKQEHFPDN

B7.1/Ig fusion protein [2] = molecular target: T1, B7.1/Ig fusion protein; experiment: Scatchard analysis, binding to B7-Ig coated plates; remark: listed apart in the source

B1: monkey monoclonal antibody 7B6 (antibody, V domains shown)
VH: EVQLVESGGGLVQPGGSLRVSCAVSGFTFSDHYMYWFRQAPGKGPEWVGFIRNKPNGGTTEYAASVKDRFTISRDDSKSIAYLQMSSLKIEDTAVYYCTTSYISHCRGGVCYGGYFEFWGQGALVTVSS
VL: EVVMTQSPLSLPITPGEPASISCRSSQSLKHSNGDTFLSWYQQKPGQPPRLLIYKVSNRDSGVPDRFSGSGAGTDFTLKISAVEAEDVGVYFCGQGTRTPPTFGGGTKVEIK
B7.1/Ig fusion protein [1]
  Kd: ~10.7 nM
B7.1/Ig fusion protein [2]
  Kd: ~10.7 nM
